Experimental data as given in US20240226298A1 (JUNO THERAPEUTICS, published 2024).

T1: B-lymphocyte antigen CD19 (CD19) (human, UniProt P15391 20-556)
T1 sequence (looked up): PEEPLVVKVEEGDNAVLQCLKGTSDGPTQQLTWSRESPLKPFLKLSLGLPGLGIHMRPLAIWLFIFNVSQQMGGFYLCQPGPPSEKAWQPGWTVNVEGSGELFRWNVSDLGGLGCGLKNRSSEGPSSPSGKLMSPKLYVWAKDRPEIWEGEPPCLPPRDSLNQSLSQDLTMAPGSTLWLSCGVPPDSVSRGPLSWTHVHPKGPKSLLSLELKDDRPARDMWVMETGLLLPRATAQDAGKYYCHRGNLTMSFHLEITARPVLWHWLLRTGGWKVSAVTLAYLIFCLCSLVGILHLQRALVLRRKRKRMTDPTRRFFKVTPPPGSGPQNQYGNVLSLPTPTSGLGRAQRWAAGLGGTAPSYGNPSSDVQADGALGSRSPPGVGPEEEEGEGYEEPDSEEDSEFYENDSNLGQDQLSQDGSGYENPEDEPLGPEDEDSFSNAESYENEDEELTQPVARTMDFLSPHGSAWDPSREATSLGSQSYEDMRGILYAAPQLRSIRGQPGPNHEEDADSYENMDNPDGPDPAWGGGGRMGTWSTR


Assays:
Assay in all cases: cell-based or functional assay
[1] = target: T2, B-cell activating factor receptor (BAFF-R) (human, UniProt Q96RJ3 1-184)
[2] = target: T2, B-cell activating factor receptor …; remark: listed apart in the source
[3] = target: T1, B-lymphocyte antigen CD19 (CD19)

| decrease in IFN-γ production with sBAFF, alone or relative to FMC63 scFv alone (JeKo-1 co-culture) [1] | decrease of IFN-γ with FMC63 scFv + sBAFF compared to the inhibition from FMC63 scFv alone (JeKo-1 co-culture) [1] | inhibition of IFN-γ production by CAR T cells when JeKo-1 target cells were preincubated with both FMC63 scFv and sBAFF (20 µg/mL each), relative to target-only co-culture; legend: ++ = High, >80% [2] | inhibition of IFN-γ production by CAR T cells when JeKo-1 target cells were preincubated with both FMC63 scFv and sBAFF (20 µg/mL each), relative to target-only co-culture; legend: ++ = High, >80% [3] | decrease in IFN-γ production with FMC63 scFv + sBAFF relative to FMC63 scFv alone (JeKo-1 co-culture) [1] | Binder |
| --- | --- | --- | --- | --- | --- |
| ≤ 20% | ≤ 10% |  |  |  | JH2 CAR/LiD/b (other) DIQMTQTTSSLSASLGDRVTISCRASQDISKYLNWYQQKPDGTVKLLIYHTSRLHSGVPSRFSGSGSGTDYSLTISNLEQEDIATYFCQQGNTLPYTFGGGTKLEITGSTSGSGKPGSGEGSTKGEVKLQESGPGLVAPSQSLSVTCTVSGVSLPDYGVSWIRQPPRKGLEWLGVIWGSETTYYNSALKSRLTIIKDNSKSQVFLKMNSLQTDDTAIYYCAKHYYYGGSYAMDYWGQGTSVTVSSGGGGSEIVMTQSPATLSLSPGERATLSCRASQIISSSYLSWYQQKPGQAPRLLIYGASTRATGIPARFSGSGSGTDFTLTISSLQPEDFAVYYCQQDYDFPFTFGPGTKVDIKRGGGGSGGGGSGGGGSQVQLQESGPGLVKPSETLSLTCTVSGGSISSYYWSWIRQPPGKGLEWIGYINNSGSTNYNPSLKSRVTISVDTSKNQFSLKLSSVTAADTAVYYCAREDDYWGQGTLVTVSSESKYGPPCPPCPMFWVLVVVGGVLACYSLLVTVAFIIFWVKRGRKKLLYIFKQPFMRPVQTTQEEDGCSCRFPEEEEGGCELRVKFSRSADAPAYQQGQNQLYNELNLGRREEYDVLDKRRGRDPEMGGKPRRKNPQEGLYNELQKDKMAEAYSEIGMKGERRRGKGHDGLYQGLSTATKDTYDALHMQALPPR |
| ≤ 20% | ≤ 10% |  |  |  | JH2 CAR/LoD/b (other) QVQLQESGPGLVKPSETLSLTCTVSGGSISSYYWSWIRQPPGKGLEWIGYINNSGSTNYNPSLKSRVTISVDTSKNQFSLKLSSVTAADTAVYYCAREDDYWGQGTLVTVSSGGGGSDIQMTQTTSSLSASLGDRVTISCRASQDISKYLNWYQQKPDGTVKLLIYHTSRLHSGVPSRFSGSGSGTDYSLTISNLEQEDIATYFCQQGNTLPYTFGGGTKLEITGSTSGSGKPGSGEGSTKGEVKLQESGPGLVAPSQSLSVTCTVSGVSLPDYGVSWIRQPPRKGLEWLGVIWGSETTYYNSALKSRLTIIKDNSKSQVFLKMNSLQTDDTAIYYCAKHYYYGGSYAMDYWGQGTSVTVSSGGGGSEIVMTQSPATLSLSPGERATLSCRASQIISSSYLSWYQQKPGQAPRLLIYGASTRATGIPARFSGSGSGTDFTLTISSLQPEDFAVYYCQQDYDFPFTFGPGTKVDIKRESKYGPPCPPCPMFWVLVVVGGVLACYSLLVTVAFIIFWVKRGRKKLLYIFKQPFMRPVQTTQEEDGCSCRFPEEEEGGCELRVKFSRSADAPAYQQGQNQLYNELNLGRREEYDVLDKRRGRDPEMGGKPRRKNPQEGLYNELQKDKMAEAYSEIGMKGERRRGKGHDGLYQGLSTATKDTYDALHMQALPPR |
| ≤ 20% | ≤ 10% |  |  |  | JH3 CAR/LoD (other) EIVMTQSPATLSLSPGERATLSCRASQSVSSNYFSWYQQKPGQAPRLLIYGASTRATGIPARFSGSGSGTDFTLTISSLQPEDFAVYYCQQDYDFPFTFGPGTKVDIKRGGGGSGGGGSDIQMTQTTSSLSASLGDRVTISCRASQDISKYLNWYQQKPDGTVKLLIYHTSRLHSGVPSRFSGSGSGTDYSLTISNLEQEDIATYFCQQGNTLPYTFGGGTKLEITGSTSGSGKPGSGEGSTKGEVKLQESGPGLVAPSQSLSVTCTVSGVSLPDYGVSWIRQPPRKGLEWLGVIWGSETTYYNSALKSRLTIIKDNSKSQVFLKMNSLQTDDTAIYYCAKHYYYGGSYAMDYWGQGTSVTVSSGGGGSGGGGSQVQLQESGPGLVKPSETLSLTCTVSGGSISNYYWSWIRQPPGKGLEWIGYIYYSGSTIYNPSLKSRVTISVDTSKNQFSLKLSSVTAADTAVYYCAGDSSGIDYWGQGTLVTVSSESKYGPPCPPCPMFWVLVVVGGVLACYSLLVTVAFIIFWVKRGRKKLLYIFKQPFMRPVQTTQEEDGCSCRFPEEEEGGCELRVKFSRSADAPAYQQGQNQLYNELNLGRREEYDVLDKRRGRDPEMGGKPRRKNPQEGLYNELQKDKMAEAYSEIGMKGERRRGKGHDGLYQGLSTATKDTYDALHMQALPPR |
|  |  | > 80% | > 80% | > 50% | JH1 CAR/LoP (other) DIQMTQTTSSLSASLGDRVTISCRASQDISKYLNWYQQKPDGTVKLLIYHTSRLHSGVPSRFSGSGSGTDYSLTISNLEQEDIATYFCQQGNTLPYTFGGGTKLEITGGGGSQVQLVQSGAEVKKPGASVKVSCKASGYTFTSYAMHWVRQAPGQRLEWMGWINAGNGNTKYSQKFQGRVTITRDTSASTAYMELRSLRSDDTAVYYCASGPGRLPVVWGQGTLVTVSSGGGGSGGGGSGGGGSSYVLTQPPSVSVAPGKTARITCGGNNIGSKSVHWYQQKPGQAPVLVVYDDSDRPSGIPERFSGSNSGNTATLTISRVEAGDEADYYCQVWDSSSDHVVFGGGTKLTVLGGGGSEVKLQESGPGLVAPSQSLSVTCTVSGVSLPDYGVSWIRQPPRKGLEWLGVIWGSETTYYNSALKSRLTIIKDNSKSQVFLKMNSLQTDDTAIYYCAKHYYYGGSYAMDYWGQGTSVTVSSESKYGPPCPPCPMFWVLVVVGGVLACYSLLVTVAFIIFWVKRGRKKLLYIFKQPFMRPVQTTQEEDGCSCRFPEEEEGGCELRVKFSRSADAPAYQQGQNQLYNELNLGRREEYDVLDKRRGRDPEMGGKPRRKNPQEGLYNELQKDKMAEAYSEIGMKGERRRGKGHDGLYQGLSTATKDTYDALHMQALPPR |
| ≤ 20% | ≤ 10% |  |  |  | JH2 CAR/LiD/a (other) DIQMTQTTSSLSASLGDRVTISCRASQDISKYLNWYQQKPDGTVKLLIYHTSRLHSGVPSRFSGSGSGTDYSLTISNLEQEDIATYFCQQGNTLPYTFGGGTKLEITGSTSGSGKPGSGEGSTKGEVKLQESGPGLVAPSQSLSVTCTVSGVSLPDYGVSWIRQPPRKGLEWLGVIWGSETTYYNSALKSRLTIIKDNSKSQVFLKMNSLQTDDTAIYYCAKHYYYGGSYAMDYWGQGTSVTVSSGGGGSQVQLQESGPGLVKPSETLSLTCTVSGGSISSYYWSWIRQPPGKGLEWIGYINNSGSTNYNPSLKSRVTISVDTSKNQFSLKLSSVTAADTAVYYCAREDDYWGQGTLVTVSSGGGGSGGGGSGGGGSEIVMTQSPATLSLSPGERATLSCRASQIISSSYLSWYQQKPGQAPRLLIYGASTRATGIPARFSGSGSGTDFTLTISSLQPEDFAVYYCQQDYDFPFTFGPGTKVDIKRESKYGPPCPPCPMFWVLVVVGGVLACYSLLVTVAFIIFWVKRGRKKLLYIFKQPFMRPVQTTQEEDGCSCRFPEEEEGGCELRVKFSRSADAPAYQQGQNQLYNELNLGRREEYDVLDKRRGRDPEMGGKPRRKNPQEGLYNELQKDKMAEAYSEIGMKGERRRGKGHDGLYQGLSTATKDTYDALHMQALPPR |
| ≤ 20% | ≤ 10% |  |  |  | JH4 CAR/LiD (other) DIQMTQTTSSLSASLGDRVTISCRASQDISKYLNWYQQKPDGTVKLLIYHTSRLHSGVPSRFSGSGSGTDYSLTISNLEQEDIATYFCQQGNTLPYTFGGGTKLEITGSTSGSGKPGSGEGSTKGEVKLQESGPGLVAPSQSLSVTCTVSGVSLPDYGVSWIRQPPRKGLEWLGVIWGSETTYYNSALKSRLTIIKDNSKSQVFLKMNSLQTDDTAIYYCAKHYYYGGSYAMDYWGQGTSVTVSSGGGGSQVQLQESGPGLVKPSETLSLTCTVSGGSISSYYWSWIRQSPGKGLEWIGYIHYSGNTNYNPSLKSRVTISVDTSKNQFSLKLSSVTAADTAVYYCAREDDYWGQGTLVTVSSGGGGSGGGGSGGGGSEIVMTQSPATLSLSPGERATLSCRASQSVSSNYLSWYQQKPGQAPRLLIYGASTRATGIPARFSGSGSGTDFTLTISSLQPEDFAVYYCQQDFDFPFTFGPGTKVDIKRESKYGPPCPPCPMFWVLVVVGGVLACYSLLVTVAFIIFWVKRGRKKLLYIFKQPFMRPVQTTQEEDGCSCRFPEEEEGGCELRVKFSRSADAPAYQQGQNQLYNELNLGRREEYDVLDKRRGRDPEMGGKPRRKNPQEGLYNELQKDKMAEAYSEIGMKGERRRGKGHDGLYQGLSTATKDTYDALHMQALPPR |
|  | ≤ 10% | > 80% | > 80% | > 50% | JH2 CAR/LoP (other) DIQMTQTTSSLSASLGDRVTISCRASQDISKYLNWYQQKPDGTVKLLIYHTSRLHSGVPSRFSGSGSGTDYSLTISNLEQEDIATYFCQQGNTLPYTFGGGTKLEITGGGGSQVQLQESGPGLVKPSETLSLTCTVSGGSISSYYWSWIRQPPGKGLEWIGYINNSGSTNYNPSLKSRVTISVDTSKNQFSLKLSSVTAADTAVYYCAREDDYWGQGTLVTVSSGGGGSGGGGSGGGGSEIVMTQSPATLSLSPGERATLSCRASQIISSSYLSWYQQKPGQAPRLLIYGASTRATGIPARFSGSGSGTDFTLTISSLQPEDFAVYYCQQDYDFPFTFGPGTKVDIKRGGGGSEVKLQESGPGLVAPSQSLSVTCTVSGVSLPDYGVSWIRQPPRKGLEWLGVIWGSETTYYNSALKSRLTIIKDNSKSQVFLKMNSLQTDDTAIYYCAKHYYYGGSYAMDYWGQGTSVTVSSESKYGPPCPPCPMFWVLVVVGGVLACYSLLVTVAFIIFWVKRGRKKLLYIFKQPFMRPVQTTQEEDGCSCRFPEEEEGGCELRVKFSRSADAPAYQQGQNQLYNELNLGRREEYDVLDKRRGRDPEMGGKPRRKNPQEGLYNELQKDKMAEAYSEIGMKGERRRGKGHDGLYQGLSTATKDTYDALHMQALPPR |
